Results reported in patent US20090274682.
Positions count from the first letter of the chain named. Names and notes keep the numbering of the source.

Legend:
[1] = molecular target: PP2A core enzyme (AC heterodimer) involving the full-length A subunit
[2] = molecular target: PP2A core enzyme involving full-length Cα and AΔN, methylated by LCMT1
[3] = molecular target: PP2A core enzyme variant involving truncation of the carboxy-terminus of the catalytic subunit (two C-terminal amino acids removed by chymotrypsin)
Sequence of PP2A core enzyme variant involving truncation of the carboxy-terminus of the catalytic subunit (two C-terminal amino acids removed by chymotrypsin) (chain, as listed by the source mutant, chain 1 of 2): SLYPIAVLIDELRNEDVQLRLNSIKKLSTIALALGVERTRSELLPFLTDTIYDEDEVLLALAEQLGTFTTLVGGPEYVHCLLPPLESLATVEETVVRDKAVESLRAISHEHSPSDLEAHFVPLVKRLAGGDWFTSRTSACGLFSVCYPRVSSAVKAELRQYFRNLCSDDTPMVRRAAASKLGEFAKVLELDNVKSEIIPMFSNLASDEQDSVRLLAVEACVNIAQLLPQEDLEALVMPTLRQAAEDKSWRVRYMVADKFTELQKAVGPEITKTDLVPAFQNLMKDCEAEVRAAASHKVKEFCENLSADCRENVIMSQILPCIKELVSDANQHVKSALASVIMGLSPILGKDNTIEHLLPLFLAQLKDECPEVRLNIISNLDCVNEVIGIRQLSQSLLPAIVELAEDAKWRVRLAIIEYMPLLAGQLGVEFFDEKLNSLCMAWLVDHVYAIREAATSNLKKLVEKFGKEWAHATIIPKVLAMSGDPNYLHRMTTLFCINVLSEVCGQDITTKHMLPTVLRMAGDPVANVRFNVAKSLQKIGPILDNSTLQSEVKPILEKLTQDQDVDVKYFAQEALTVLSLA
Sequence of PP2A core enzyme variant involving truncation of the carboxy-terminus of the catalytic subunit (two C-terminal amino acids removed by chymotrypsin) (chain, as listed by the source mutant, chain 2 of 2): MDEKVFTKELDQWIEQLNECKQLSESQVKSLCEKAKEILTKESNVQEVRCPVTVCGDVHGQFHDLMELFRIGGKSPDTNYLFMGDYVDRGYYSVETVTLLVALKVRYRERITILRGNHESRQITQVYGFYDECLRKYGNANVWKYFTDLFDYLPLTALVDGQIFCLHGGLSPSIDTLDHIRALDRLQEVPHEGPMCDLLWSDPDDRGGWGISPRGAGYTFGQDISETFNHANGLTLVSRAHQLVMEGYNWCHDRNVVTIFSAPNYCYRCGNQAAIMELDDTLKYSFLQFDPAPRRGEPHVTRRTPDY

Sequence of PP2A core enzyme (AC heterodimer) involving the full-length A subunit (chain, as listed by the source, chain 1 of 2): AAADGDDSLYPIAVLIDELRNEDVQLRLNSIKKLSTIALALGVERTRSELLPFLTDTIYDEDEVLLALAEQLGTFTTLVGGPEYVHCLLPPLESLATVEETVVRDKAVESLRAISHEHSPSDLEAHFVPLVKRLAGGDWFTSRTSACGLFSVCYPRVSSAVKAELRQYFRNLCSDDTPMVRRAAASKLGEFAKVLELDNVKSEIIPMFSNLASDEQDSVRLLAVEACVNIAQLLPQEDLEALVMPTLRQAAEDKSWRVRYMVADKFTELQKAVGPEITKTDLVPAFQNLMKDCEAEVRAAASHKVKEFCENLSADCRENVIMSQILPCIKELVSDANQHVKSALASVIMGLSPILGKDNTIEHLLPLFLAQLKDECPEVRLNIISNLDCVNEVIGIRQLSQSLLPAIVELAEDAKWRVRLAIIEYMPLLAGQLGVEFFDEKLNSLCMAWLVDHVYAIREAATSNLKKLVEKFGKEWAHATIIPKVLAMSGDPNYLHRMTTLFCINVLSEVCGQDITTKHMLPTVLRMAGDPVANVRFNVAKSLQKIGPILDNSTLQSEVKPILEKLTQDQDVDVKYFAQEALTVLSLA
Sequence of PP2A core enzyme (AC heterodimer) involving the full-length A subunit (chain, as listed by the source, chain 2 of 2): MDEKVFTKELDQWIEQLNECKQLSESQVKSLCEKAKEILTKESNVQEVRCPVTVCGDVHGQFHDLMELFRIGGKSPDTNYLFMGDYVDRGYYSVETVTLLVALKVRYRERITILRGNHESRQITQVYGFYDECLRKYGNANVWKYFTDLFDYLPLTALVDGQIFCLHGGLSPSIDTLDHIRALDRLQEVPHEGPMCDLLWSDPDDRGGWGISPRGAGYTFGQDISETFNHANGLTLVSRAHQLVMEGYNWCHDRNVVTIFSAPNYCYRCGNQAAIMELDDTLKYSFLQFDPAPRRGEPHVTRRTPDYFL
Sequence of PP2A core enzyme involving full-length Cα and AΔN, methylated by LCMT1 (chain, as listed by the source mutant, chain 1 of 2): as the sequence (chain, as listed by the source mutant, chain 1 of 2) above
Sequence of PP2A core enzyme involving full-length Cα and AΔN, methylated by LCMT1 (chain, as listed by the source mutant, chain 2 of 2): as the sequence (chain, as listed by the source, chain 2 of 2) above

B1: Full-length PME-1 (1-386) (protein)
chain: MSALEKSMHLGRLPSRPPLPGSGGSQSGAKMRMGPGRKRDFSPVPWSQYFESMEDVEVENETGKDTFRVYKSGSEGPVLLLLHGGGHSALSWAVFTAAIISRVQCRIVALDLRSHGETKVKNPEDLSAETMAKDVGNVVEAMYGDLPPPIMLIGHSMGGAIAVHTASSNLVPSLLGLCMIDVVEGTAMDALNSMQNFLRGRPKTFKSLENAIEWSVKSGQIRNLESARVSMVGQVKQCEGITSPEGSKSIVEGIIEEEEEDEEGSESISKRKKEDDMETKKDHPYTWRIELAKTEKYWDGWFRGLSNLFLSCPIPKLLLLAGVDRLDKDLTIGQMQGKFQMQVLPQCGHAVHEDAPDKVAEAVATFLIRHRFAEPIGGFQCVFPGC
[1]
  LCMT1-catalyzed methylation: the stable complex between PP2A and PME-1 blocks LCMT1-catalyzed methylation (data not shown)
  phosphatase activity after incubation at 37° C.: A prolonged incubation time was required for substantial loss of the phosphatase activity in vitro
  phosphatase activity towards phosphorylase a upon initial incubation: The PP2A core enzyme, upon initial incubation with various concentrations of PME-1, exhibited full phosphatase activity towards the substrate phosphorylase a
[2]
  methylesterase activity of PME-1: The methylesterase activity of PME-1 on the PP2A core enzyme involving the AΔN variant was nearly identical to that on the PP2A core enzyme involving the full-length A subunit
[3]
  methylesterase activity of PME-1 after pre-incubation with the PP2A variant and PMSF: pre-incubation with the PP2A variant and PMSF led to marked reduction of PME-1-mediated methylesterase activity

B2: PME-1 M335D (protein)
chain: B1 chain with M335D
[1]
  Mn2+ bound (ICP-MS) and phosphatase activity with or without manganese chloride: mutation of Met335 to aspartate in PME-1 led to decreased ability to remove the metal ions, and the PP2A-PME-1-M335D complex became readily activated by manganese

B3: PME-1 R369D (protein)
chain: B1 chain with R369D
[1]
  methylesterase activity: R369D in PME-1 resulted in marked reduction of its methylesterase activity
